Data: ChEMBL document CHEMBL1136535, “Unexpected inhibition of S-adenosyl-L-homocysteine hydrolase by a guanosine nucleoside” (Bioorg Med Chem Lett, 2003)

What was measured:
[1] = substrate: Nc1nc2c(ncn2[C@@H]2O[C@H](CO)[C@@H](O)[C@H]2O)c(=O)[nH]1; experiment: (§1) Enzyme kinetic constant for S-adenosyl-L-homocysteine hydrolase
[2] = substrate: O=c1[nH]cnc2c1ncn2[C@@H]1O[C@H](CO)[C@@H](O)[C@H]1O; experiment: as §1
[3] = substrate: Nc1ncnc2c1ncn2[C@@H]1O[C@H](CO)[C@@H](O)[C@H]1O; experiment: as §1
[4] = substrate: OC[C@H]1OC(n2cncc2-c2cc(O)ncn2)[C@H](O)[C@@H]1O; experiment: as §1
[5] = substrate: Nc1cc(-c2cncn2C2O[C@H](CO)[C@@H](O)[C@H]2O)ncn1; experiment: as §1
[6] = substrate: Nc1nc(O)cc(-c2cncn2C2O[C@H](CO)[C@@H](O)[C@H]2O)n1; experiment: Enzyme kinetic constant for S-adenosyl-L-homocysteine hydrolase; Not a substrate
[7] = substrate: Nc1nc(O)cc(-c2cncn2C2O[C@H](CO)[C@@H](O)[C@H]2O)n1; experiment: Enzyme kinetic constant for S-adenosyl-L-homocysteine hydrolase in hydrolysis direction

B1: Adenosylhomocysteinase (Homo sapiens), P23526 (protein)
chain: MSDKLPYKVADIGLAAWGRKALDIAENEMPGLMRMRERYSASKPLKGARIAGCLHMTVETAVLIETLVTLGAEVQWSSCNIFSTQDHAAAAIAKAGIPVYAWKGETDEEYLWCIEQTLYFKDGPLNMILDDGGDLTNLIHTKYPQLLPGIRGISEETTTGVHNLYKMMANGILKVPAINVNDSVTKSKFDNLYGCRESLIDGIKRATDVMIAGKVAVVAGYGDVGKGCAQALRGFGARVIITEIDPINALQAAMEGYEVTTMDEACQEGNIFVTTTGCIDIILGRHFEQMKDDAIVCNIGHFDVEIDVKWLNENAVEKVNIKPQVDRYRLKNGRRIILLAEGRLVNLGCAMGHPSFVMSNSFTNQVMAQIELWTHPDKYPVGVHFLPKKLDEAVAEAHLGKLNVKLTKLTEKQAQYLGMSCDGPFKPDHYRY
[1]
  Km: 844 µM
[2]
  Km: 2.5 µM
[3]
  Km: 0.82 µM
[4]
  Km: 421 µM
[5]
  Km: 54.4 µM
[6]
  Km: Not a substrate
[7]
  Km: 6.6 µM
